Measurements reported in the RNAGym collection of RNA variant scans (doi:10.1073/pnas.2313332121).
Fewer inactive variants are shown than the library holds.

B1: TPR 5TU (parent)
chain: GGAUCUUCUCGAUCUAACAAAAAAGACAAAUCUGCCACAAAGCUUGAGAGCAUCUUCGGAUGCAGAGGCGGCAGCCUUCGGUGGCGCGAUAGCGCCAACGUUCUCAACUAUGACACGCAAAACGCGUGCUCCGUUGAAUGGAGUUUAUCAUG

Variants of: B1
Experiment: polymerase ribozyme fitness, log enrichment relative to wild type (log ratio); higher = more active; in vitro selection for triplet polymerase activity
Method in brief: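 Fitness measures genotype enrichment against wild-type enrichment on a logarithmic scale, with inverse-variance-weighted averaging of replicates. The logarithm is base 2, and genotypes were kept only with ≥10 input reads and ≥1 read per output in Illumina sequencing. The sequenced libraries came from one triplicate in vitro selection round, including frozen incubation at −7 °C, of PCR-built, transcribed mutant libraries of each subunit of a heterodimeric triplet polymerase ribozyme.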

Variant | polymerase ribozyme fitness (log ratio)
GGAUCUUCUCGAUCUAACAAAAAAGACAAAUCUGCCACAAAGCUUGAGAGCAUCUUCGGAUGCAGAGGCGGCAGCCUUCGGUGGCGCGAUAGCGCCAACGUUCUCAACUUUGACACGCAAAAUGCGUGCUCCGUUGAAUGGCGUUUAUCAUG [A110U C123U A142C] | ≤ -4.2
GGAUCUUCUCGAUCUAACAAAAAAGACAAAUCUGCCACAAAGCUUGAGAGCAUCUUCGGAUGCAGAGGCGGCAGCCUUCGGUGGCGCGAUAGCGCCAACGUUCUCAACUAUGACUCGCAAAACGCGUGCUCCGUUGAAUGGCGUUUAUCAUG [A115U A142C] | -3.39
GGAUCUUCUCGAUCUAACAAAAAAGACAAAUCUGCCACAAAGCUUGAGAGCAUCUUCGGAUGCAGAGGCGGCAGCCUUCGGUGGCGCGAUAGCGCCAACGUUCUCAACUAUGACAAGCAAAACGCGUGCUCCGUUGAAAGGAGUUUAACAUG [C116A U139A U148A] | -4.12
GGAUCUUCUCGAUCUAACAAAAAAGACAAAUCUGCCACAAAGCUUGAGAGCAUCUUCGGAUGCAGAGGCGGCAGCCUUCGGUGGCGCGAUAGCGCCAACGUUCUCAACUAUGACUCGCAAAACGCGUGCUCCGUUGAAUGUAGUUUAUCAUG [A115U G141U] | -1.29
GGAUCUUCUCGAUCUAACAAAAAAGACAAAUCUGCCACAAAGCUUGAGAGCAUCUUCGGAUGCAGAGGCGGCAGCCUUCGGUGGCGCGAUAGCGCCAACGUUCUCAACUAUGGCACGGAAAACGCGUGCUCCGUUGAAUGGAGUUUAUCAUG [A113G C118G] | -1.86
GGAUCUUCUCGAUCUAACAAAAAAGACAAAUCUGCCACAAAGCUUGAGAGCAUCUUCGGAUGCAGAGGCGGCAGCCUUCGGUGGCGCGAUAGCGCCAACGUUCUCAACUAUGAUACGCUAAACGCGUGCUCCGUUGAAUGGAAUUUAUCAUG [C114U A119U G143A] | -3.89
GGAUCUUCUCGAUCUAACAAAAAAGACAAAUCUGCCACAAAGCUUGAGAGCAUCUUCGGAUGCAGAGGCGGCAGCCUUCGGUGGCGCGAUAGCGCCAACGUUCUCAACUAUGACAAGCAAAACGCGUGCUCCGUUGAAUGAAGUUUAUCAUG [C116A G141A] | -2.34
GGAUCUUCUCGAUCUAACAAAAAAGACAAAUCUGCCACAAAGCUUGAGAGCAUCUUCGGAUGCAGAGGCGGCAGCCUUCGGUGGCGCGAUAGCGCCAACGUUCUCAACUAUGCCACGAAAAACGUGUGCUCCGUUGAAUGGAGUUUAUCAUG [A113C C118A C125U] | ≤ -4.2
GGAUCUUCUCGAUCUAACAAAAAAGACAAAUCUGCCACAAAGCUUGAGAGCAUCUUCGGAUGCAGAGGCGGCAGCCUUCGGUGGCGCGAUAGCGCCAACGUUCUCAACUAUGACAUGCAGAACGCGUGCUCCGUUGAAUGGAGUUUAUCAUG [C116U A120G] | -0.0851
GGAUCUUCUCGAUCUAACAAAAAAGACAAAUCUGCCACAAAGCUUGAGAGCAUCUUCGGAUGCAGAGGCGGCAGCCUUCGGUGGCGCGAUAGCGCCAACGUUCUCAACUAUGAGACGCAAAACGCGUGCUCCCUUGAAUGGAGUUUAUCAUG [C114G G133C] | -3.93
GGAUCUUCUCGAUCUAACAAAAAAGACAAAUCUGCCACAAAGCUUGAGAGCAUCUUCGGAUGCAGAGGCGGCAGCCUUCGGUGGCGCGAUAGCGCCAACGUUCUCAACUAUGCCACGCAAAACGCGUGCUCCGUUGAAUGGAGUUUAUCAUG [A113C] | -2.35
GGAUCUUCUCGAUCUAACAAAAAAGACAAAUCUGCCACAAAGCUUGAGAGCAUCUUCGGAUGCAGAGGCGGCAGCCUUCGGUGGCGCGAUAGCGCCAACGUUCUCAACUAUGUCACGCAAAACGCGUGCUCCGUUGAAUGGAGUUUAUCAUG [A113U] | -1.59
GGAUCUUCUCGAUCUAACAAAAAAGACAAAUCUGCCACAAAGCUUGAGAGCAUCUUCGGAUGCAGAGGCGGCAGCCUUCGGUGGCGCGAUAGCGCCAACGUUCUCAACUAUGGCACGCAAAACGCGUGCUCCGUUGAAUGGAGUUUAUCAUG [A113G] | -0.894
GGAUCUUCUCGAUCUAACAAAAAAGACAAAUCUGCCACAAAGCUUGAGAGCAUCUUCGGAUGCAGAGGCGGCAGCCUUCGGUGGCGCGAUAGCGCCAACGUUCUCAACUAUGACAUGCAAAACGCGUGCUCCGUUGAAUGGCGUUUAUCAUG [C116U A142C] | -1.1
GGAUCUUCUCGAUCUAACAAAAAAGACAAAUCUGCCACAAAGCUUGAGAGCAUCUUCGGAUGCAGAGGCGGCAGCCUUCGGUGGCGCGAUAGCGCCAACGUUCUCAACUAUGACAUGCAAAACGCGUGCUCCGUUGAAUGAAGUUCAUCAUG [C116U G141A U146C] | 0.219
GGAUCUUCUCGAUCUAACAAAAAAGACAAAUCUGCCACAAAGCUUGAGAGCAUCUUCGGAUGCAGAGGCGGCAGCCUUCGGUGGCGCGAUAGCGCCAACGUUCUCAACUUUGACACGCAAAACGCGUGCUCCGUUGAAUGGUGUUUAUCUUG [A110U A142U A150U] | ≤ -4.2
GGAUCUUCUCGAUCUAACAAAAAAGACAAAUCUGCCACAAAGCUUGAGAGCAUCUUCGGAUGCAGAGGCGGCAGCCUUCGGUGGCGCGAUAGCGCCAACGUUCUCAACUAUGACAAGCAAAACGCGUGCUCCGUUAAAUGGAGUUUAUCAUG [C116A G136A] | 1.97
GGAUCUUCUCGAUCUAACAAAAAAGACAAAUCUGCCACAAAGCUUGAGAGCAUCUUCGGAUGCAGAGGCGGCAGCCUUCGGUGGCGCGAUAGCGCCAACGUUCUCAACUAUGGCACGCAAAUCGCGUGCUCCGUUAAAUGGAGUUUAACAUG [A113G A122U G136A U148A] | -3.76
GGAUCUUCUCGAUCUAACAAAAAAGACAAAUCUGCCACAAAGCUUGAGAGCAUCUUCGGAUGCAGAGGCGGCAGCCUUCGGUGGCGCGAUAGCGCCAACGUUCUCAACUAUGUCACGCAAAACGCGCGCUCCGUUGAAUGGAGUUUAUCAUG [A113U U127C] | -2.98

Variant | polymerase ribozyme fitness (log ratio)
GGAUCUUCUCGAUCUAACAAAAAAGACAAAUCUGCCACAAAGCUUGAGAGCAUCUUCGGAUGCAGAGGCGGCAGCCUUCGGUGGCGCGAUAGCGCCAACGUUCUCAACUAUGACAAGCAAAAUGUGUGCUCCGUUGAAUGGAGUUUAUCAUG [C116A C123U C125U] | -3.41
GGAUCUUCUCGAUCUAACAAAAAAGACAAAUCUGCCACAAAGCUUGAGAGCAUCUUCGGAUGCAGAGGCGGCAGCCUUCGGUGGCGCGAUAGCGCCAACGUUCUCAACUAUGAGACGCAAAACGCGUGCUCCGUUGAAUGGAAUUUAUCAUG [C114G G143A] | ≤ -4.2
GGAUCUUCUCGAUCUAACAAAAAAGACAAAUCUGCCACAAAGCUUGAGAGCAUCUUCGGAUGCAGAGGCGGCAGCCUUCGGUGGCGCGAUAGCGCCAACGUUCUCAACUAUGACAGGCAAAACGCGUGCUCCGUUGAAUGGAAUUUAUCAUG [C116G G143A] | -2.16
GGAUCUUCUCGAUCUAACAAAAAAGACAAAUCUGCCACAAAGCUUGAGAGCAUCUUCGGAUGCAGAGGCGGCAGCCUUCGGUGGCGCGAUAGCGCCAACGUUCUCAACUAUGCCACGCAAAACGCGUGCUCCGUAAAAUGGAGUUUAUCAUG [A113C U135A G136A] | -4.05
GGAUCUUCUCGAUCUAACAAAAAAGACAAAUCUGCCACAAAGCUUGAGAGCAUCUUCGGAUGCAGAGGCGGCAGCCUUCGGUGGCGCGAUAGCGCCAACGUUCUCAACUAUGACUCGCAAAACGCGUGCUCCGGUGAAUGGAGUUUAUCAUG [A115U U134G] | -3.31
GGAUCUUCUCGAUCUAACAAAAAAGACAAAUCUGCCACAAAGCUUGAGAGCAUCUUCGGAUGCAGAGGCGGCAGCCUUCGGUGGCGCGAUAGCGCCAACGUUCUCAACUGUGACACGCAAAACGCGUGCUCCGUUGAAUGGAGGUUAUCAUG [A110G U144G] | -3.13
GGAUCUUCUCGAUCUAACAAAAAAGACAAAUCUGCCACAAAGCUUGAGAGCAUCUUCGGAUGCAGAGGCGGCAGCCUUCGGUGGCGCGAUAGCGCCAACGUUCUCAACUAUGACGCGCAAAACGCGUGGUCCGUUGAAUGGAGUUUAUCAUG [A115G C129G] | -3.64
GGAUCUUCUCGAUCUAACAAAAAAGACAAAUCUGCCACAAAGCUUGAGAGCAUCUUCGGAUGCAGAGGCGGCAGCCUUCGGUGGCGCGAUAGCGCCAACGUUCUCAACUAUGACAAGCAAAACGCGUGCUCCGUUGAAUGGGGUUUAUCAUG [C116A A142G] | 0.244
GGAUCUUCUCGAUCUAACAAAAAAGACAAAUCUGCCACAAAGCUUGAGAGCAUCUUCGGAUGCAGAGGCGGCAGCCUUCGGUGGCGCGAUAGCGCCAACGUUCUCAACUAUGAUACGCAAAACGCGUGCUCCGUUGAAUGGGGUUUAUCAUG [C114U A142G] | -2.95
GGAUCUUCUCGAUCUAACAAAAAAGACAAAUCUGCCACAAAGCUUGAGAGCAUCUUCGGAUGCAGAGGCGGCAGCCUUCGGUGGCGCGAUAGCGCCAACGUUCUCAACUAUGUCACGCAAAACGCGUGCUCCGCUGAAUGGAGUUUAUCAUG [A113U U134C] | -2.77
GGAUCUUCUCGAUCUAACAAAAAAGACAAAUCUGCCACAAAGCUUGAGAGCAUCUUCGGAUGCAGAGGCGGCAGCCUUCGGUGGCGCGAUAGCGCCAACGUUCUCAACUAUGACAAGCAAAACGCGUGCUCCGUUGAAUGGAGUUUAACAUG [C116A U148A] | -3.52
GGAUCUUCUCGAUCUAACAAAAAAGACAAAUCUGCCACAAAGCUUGAGAGCAUCUUCGGAUGCAGAGGCGGCAGCCUUCGGUGGCGCGAUAGCGCCAACGUUCUCAACUAUGAGACGCAAAACGCGUGCUCCGUUGAAUGCAGUUUAACAUG [C114G G141C U148A] | ≤ -4.2
GGAUCUUCUCGAUCUAACAAAAAAGACAAAUCUGCCACAAAGCUUGAGAGCAUCUUCGGAUGCAGAGGCGGCAGCCUUCGGUGGCGCGAUAGCGCCAACGUUCUCAACUAUGACAGGCAAAGCGCGUGCUCCGUUGAAUGGAGUUUAUCAUG [C116G A122G] | -0.408
GGAUCUUCUCGAUCUAACAAAAAAGACAAAUCUGCCACAAAGCUUGAGAGCAUCUUCGGAUGCAGAGGCGGCAGCCUUCGGUGGCGCGAUAGCGCCAACGUUCUCAACUAUGCCAAGCAAAACGCGUGCUCCGUUGAAUGGAGUUUAUCAUG [A113C C116A] | ≤ -4.2
GGAUCUUCUCGAUCUAACAAAAAAGACAAAUCUGCCACAAAGCUUGAGAGCAUCUUCGGAUGCAGAGGCGGCAGCCUUCGGUGGCGCGAUAGCGCCAACGUUCUCAACUAUGAGACGCAAAACGCGUGCUCCGUUGAAUUGAGUUUAUCAUG [C114G G140U] | -3.9
GGAUCUUCUCGAUCUAACAAAAAAGACAAAUCUGCCACAAAGCUUGAGAGCAUCUUCGGAUGCAGAGGCGGCAGCCUUCGGUGGCGCGAUAGCGCCAACGUUCUCAACUAUGACAUGGAAAACGCGUGCUCCGUUGAAUGGAGUUUAUCAUG [C116U C118G] | 0.0696
GGAUCUUCUCGAUCUAACAAAAAAGACAAAUCUGCCACAAAGCUUGAGAGCAUCUUCGGAUGCAGAGGCGGCAGCCUUCGGUGGCGCGAUAGCGCCAACGUUCUCAACUAUGACGCGCAAAUCCCGUGCUCCGUUGAAUGGAGUUUAUCAUG [A115G A122U G124C] | -1.96
GGAUCUUCUCGAUCUAACAAAAAAGACAAAUCUGCCACAAAGCUUGAGAGCAUCUUCGGAUGCAGAGGCGGCAGCCUUCGGUGGCGCGAUAGCGCCAACGUUCUCAACUAUGACGCGCAAAACGCGUGCUCCGUUGAAUUGAGUUUAUCAUG [A115G G140U] | -3.41
GGAUCUUCUCGAUCUAACAAAAAAGACAAAUCUGCCACAAAGCUUGAGAGCAUCUUCGGAUGCAGAGGCGGCAGCCUUCGGUGGCGCGAUAGCGCCAACGUUCUCAACUAUGCCACGCAAAACGCGUACUCCGUUGAAUGGAGUUUAUCAUG [A113C G128A] | -4.02
